The values that follow come from publication PMC7214386, “Plasmonic biosensors fabricated by galvanic displacement reactions for monitoring biomolecular interactions in real time” (Analytical and Bioanalytical Chemistry, 2020).

The target in assay [1] is Protein A (Staphylococcus aureus) (UniProt P38507). Put plainly: LSPR (localized surface plasmon resonance, reflectance spectroscopy); PrA physically adsorbed on the nanostructured gold layer; analyte flown over in PBS pH 7.4, 0.57 ml/min; equilibrium shifts of three sensors fitted to a Langmuir isotherm.
Assay [2] has the same target. Put plainly: LSPR (localized surface plasmon resonance, reflectance spectroscopy); PrA covalently coupled to the nanostructured gold layer via cysteamine/glutardialdehyde; analyte flown over in PBS pH 7.4, 0.57 ml/min; equilibrium shifts of three sensors fitted to a Langmuir isotherm.
In the next assay the target is T1, asialofetuin (UniProt P12763 19-359, glycoprotein presenting terminal galactose residues).
T1 construct: asialofetuin (desialylated fetuin), printed mass 48 kDa; Physically adsorbed on the gold sensor; also called ASF; source: bought: Sigma
T1 sequence (looked up): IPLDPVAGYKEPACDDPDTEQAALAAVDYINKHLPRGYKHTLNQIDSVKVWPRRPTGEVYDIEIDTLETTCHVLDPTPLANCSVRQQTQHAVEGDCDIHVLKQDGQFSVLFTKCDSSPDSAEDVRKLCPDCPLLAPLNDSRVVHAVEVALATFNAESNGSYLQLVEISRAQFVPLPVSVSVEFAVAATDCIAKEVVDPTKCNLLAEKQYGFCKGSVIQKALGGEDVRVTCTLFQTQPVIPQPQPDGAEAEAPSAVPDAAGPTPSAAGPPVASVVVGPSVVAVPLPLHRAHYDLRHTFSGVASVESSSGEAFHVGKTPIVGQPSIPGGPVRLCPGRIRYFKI
Put plainly: LSPR (localized surface plasmon resonance, reflectance spectroscopy); ASF physically adsorbed on the nanostructured gold layer; analyte in lectin buffer (10 mM HEPES, 150 mM NaCl, 0.1 mM CaCl2, pH 7.5); equilibrium shifts of three sensors fitted to a Langmuir isotherm. The note with it: both partners purified.

A word on the Kd: it is a measure of binding affinity in units of concentration.

Regarding “immunoglobulin G (IgG, 150 kDa) from rabbit (antibody)”, the Kd in assay [1] stood at 140 nM; in assay [2], 150 nM.

B1: Erythrina cristagalli lectin (natural protein, UniProt P83410 1-239, looked up)
chain: VETISFSFSEFEPGNDNLTLQGAALITQSGVLQLTKINQNGMPAWDSTGRTLYTKPVHMWDSTTGTVASFETRFSFSIEQPYTRPLPADGLVFFMGPTKSKPAQGYGYLGVFNNSKQDNSYQTLAVEFDTFSNPWDPPQVPHIGIDVNSIRSIKTQPFQLDNGQVANVVIKYDAPSKILHVVLVYPSSGAIYTIAEIVDVKQVLPDWVDVGLSGATGAQRDAAETHDVYSWSFQASLPE
notes: lectin of the plant Erythrina cristagalli; printed mass 54 kDa; The printed 54 kDa probably means a dimer of the lectin chain; also called ECL; source: bought: Vector Laboratories via BIOZOL Diagnostica
On to B1, for which the Kd in the assay with asialofetuin was determined as 490 nM.
